From US20240279318A1 (NANJING LEGEND BIOTECH, published 2024)

Tests used:
[1] = target: T1, AFP158/HLA-A*02:01 complex (human); assay: SPR, KD ratio to AS170036 VL1VH1;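 also: crude scFv captured on a sensor chip, peptide–HLA complex passed over at several concentrations, association then buffer dissociation, KD derived from on- and off-rates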
T1 construct: flowed over the chip in SPR; also called AFP158 pro
Procedure: (§1) The experiment was carried out as follows. The crude scFv protein were captured onto the sensorchip. Different concentrations (320, 160, 40 nM) of AFP158/HLA-A*02:01 complex flowed over the sensorchip surface, and were allowed to bind the antibody fragment for 100 s followed by injection of the running buffer to allow dissociation of the complex. On-rate (kd) and off-rate (kd) were calculated based on association and dissociation curve, and were used to estimate the equilibrium dissociation constant (KD).

[2] = target: T1, AFP158/HLA-A*02:01 complex; assay: SPR, scFv captured, pMHC in flow;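 also: complex injected at several concentrations over crude scFv, association then running-buffer dissociation, KD estimated from kinetic on- and off-rate constants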
Procedure: as §1

Binder | Affinity increase [1] | Kd [2]
HP110E (scFv, AS170036 VL1VH1 scFv mutein) scFv: QSALTQPRSVSGSPGQSVTISCAGTSSDVGSENYVSWYQQHPGKAPKLMIYQVNKRASGVPDRFSGSKSGNTASLTISGLQAEDEADYYCASYRSSDHNIVFGGGTKLTVLGGGGSGGGGSGGGGSEVQLVESGGGLVQPGGSLRLSCAASGFTFSSYAMSWVRQAPGKGLEWVSTINSGTGSPYYADSVKGRFTISRDNSKNTLYLQMNSLRAEDTAVYYCAKNFFDGSWFLGPEAMDYWGQGTLVTVSSHHHHHH | 1.8 fold | 150 nM
HP110G (scFv, AS170036 VL1VH1 scFv mutein) scFv: QSALTQPRSVSGSPGQSVTISCAGTSSDVGSENYVSWYQQHPGKAPKLMIYQVNKRASGVPDRFSGSKSGNTASLTISGLQAEDEADYYCASYRSSDHNIVFGGGTKLTVLGGGGSGGGGSGGGGSEVQLVESGGGLVQPGGSLRLSCAASGFTFSSYAMSWVRQAPGKGLEWVSTINSGTGSPYYADSVKGRFTISRDNSKNTLYLQMNSLRAEDTAVYYCAKNFFDGSWFLGPGAMDYWGQGTLVTVSSHHHHHH | 1 fold | 260 nM
HP110Q (scFv, AS170036 VL1VH1 scFv mutein) scFv: QSALTQPRSVSGSPGQSVTISCAGTSSDVGSENYVSWYQQHPGKAPKLMIYQVNKRASGVPDRFSGSKSGNTASLTISGLQAEDEADYYCASYRSSDHNIVFGGGTKLTVLGGGGSGGGGSGGGGSEVQLVESGGGLVQPGGSLRLSCAASGFTFSSYAMSWVRQAPGKGLEWVSTINSGTGSPYYADSVKGRFTISRDNSKNTLYLQMNSLRAEDTAVYYCAKNFFDGSWFLGPQAMDYWGQGTLVTVSSHHHHHH | 0.9 fold | 300 nM
HP110S (scFv, AS170036 VL1VH1 scFv mutein) scFv: QSALTQPRSVSGSPGQSVTISCAGTSSDVGSENYVSWYQQHPGKAPKLMIYQVNKRASGVPDRFSGSKSGNTASLTISGLQAEDEADYYCASYRSSDHNIVFGGGTKLTVLGGGGSGGGGSGGGGSEVQLVESGGGLVQPGGSLRLSCAASGFTFSSYAMSWVRQAPGKGLEWVSTINSGTGSPYYADSVKGRFTISRDNSKNTLYLQMNSLRAEDTAVYYCAKNFFDGSWFLGPSAMDYWGQGTLVTVSSHHHHHH | 0.8 fold | 300 nM
HP110T (scFv, AS170036 VL1VH1 scFv mutein) scFv: QSALTQPRSVSGSPGQSVTISCAGTSSDVGSENYVSWYQQHPGKAPKLMIYQVNKRASGVPDRFSGSKSGNTASLTISGLQAEDEADYYCASYRSSDHNIVFGGGTKLTVLGGGGSGGGGSGGGGSEVQLVESGGGLVQPGGSLRLSCAASGFTFSSYAMSWVRQAPGKGLEWVSTINSGTGSPYYADSVKGRFTISRDNSKNTLYLQMNSLRAEDTAVYYCAKNFFDGSWFLGPTAMDYWGQGTLVTVSSHHHHHH | 1.3 fold | 180 nM
HP110V (scFv, AS170036 VL1VH1 scFv mutein) scFv: QSALTQPRSVSGSPGQSVTISCAGTSSDVGSENYVSWYQQHPGKAPKLMIYQVNKRASGVPDRFSGSKSGNTASLTISGLQAEDEADYYCASYRSSDHNIVFGGGTKLTVLGGGGSGGGGSGGGGSEVQLVESGGGLVQPGGSLRLSCAASGFTFSSYAMSWVRQAPGKGLEWVSTINSGTGSPYYADSVKGRFTISRDNSKNTLYLQMNSLRAEDTAVYYCAKNFFDGSWFLGPVAMDYWGQGTLVTVSSHHHHHH | 0.6 fold | 400 nM
HS57A (scFv, AS170036 VL1VH1 scFv mutein) scFv: QSALTQPRSVSGSPGQSVTISCAGTSSDVGSENYVSWYQQHPGKAPKLMIYQVNKRASGVPDRFSGSKSGNTASLTISGLQAEDEADYYCASYRSSDHNIVFGGGTKLTVLGGGGSGGGGSGGGGSEVQLVESGGGLVQPGGSLRLSCAASGFTFSSYAMSWVRQAPGKGLEWVSTINSGTGAPYYADSVKGRFTISRDNSKNTLYLQMNSLRAEDTAVYYCAKNFFDGSWFLGPPAMDYWGQGTLVTVSSHHHHHH | 1.2 fold | 210 nM
HS57D (scFv, AS170036 VL1VH1 scFv mutein) scFv: QSALTQPRSVSGSPGQSVTISCAGTSSDVGSENYVSWYQQHPGKAPKLMIYQVNKRASGVPDRFSGSKSGNTASLTISGLQAEDEADYYCASYRSSDHNIVFGGGTKLTVLGGGGSGGGGSGGGGSEVQLVESGGGLVQPGGSLRLSCAASGFTFSSYAMSWVRQAPGKGLEWVSTINSGTGDPYYADSVKGRFTISRDNSKNTLYLQMNSLRAEDTAVYYCAKNFFDGSWFLGPPAMDYWGQGTLVTVSSHHHHHH | 1.2 fold | 200 nM
HS57F (scFv, AS170036 VL1VH1 scFv mutein) scFv: QSALTQPRSVSGSPGQSVTISCAGTSSDVGSENYVSWYQQHPGKAPKLMIYQVNKRASGVPDRFSGSKSGNTASLTISGLQAEDEADYYCASYRSSDHNIVFGGGTKLTVLGGGGSGGGGSGGGGSEVQLVESGGGLVQPGGSLRLSCAASGFTFSSYAMSWVRQAPGKGLEWVSTINSGTGFPYYADSVKGRFTISRDNSKNTLYLQMNSLRAEDTAVYYCAKNFFDGSWFLGPPAMDYWGQGTLVTVSSHHHHHH | 1.4 fold | 180 nM
HS57H (scFv, AS170036 VL1VH1 scFv mutein; also called AS170036 VL1VH1-VHS57H) scFv: QSALTQPRSVSGSPGQSVTISCAGTSSDVGSENYVSWYQQHPGKAPKLMIYQVNKRASGVPDRFSGSKSGNTASLTISGLQAEDEADYYCASYRSSDHNIVFGGGTKLTVLGGGGSGGGGSGGGGSEVQLVESGGGLVQPGGSLRLSCAASGFTFSSYAMSWVRQAPGKGLEWVSTINSGTGHPYYADSVKGRFTISRDNSKNTLYLQMNSLRAEDTAVYYCAKNFFDGSWFLGPPAMDYWGQGTLVTVSSHHHHHH | 6.9 fold | 35 nM
HS57K (scFv, AS170036 VL1VH1 scFv mutein; also called AS170036 VL1VH1-VHS57K) scFv: QSALTQPRSVSGSPGQSVTISCAGTSSDVGSENYVSWYQQHPGKAPKLMIYQVNKRASGVPDRFSGSKSGNTASLTISGLQAEDEADYYCASYRSSDHNIVFGGGTKLTVLGGGGSGGGGSGGGGSEVQLVESGGGLVQPGGSLRLSCAASGFTFSSYAMSWVRQAPGKGLEWVSTINSGTGKPYYADSVKGRFTISRDNSKNTLYLQMNSLRAEDTAVYYCAKNFFDGSWFLGPPAMDYWGQGTLVTVSSHHHHHH | 4.4 fold | 56 nM
HS57M (scFv, AS170036 VL1VH1 scFv mutein; also called AS170036 VL1VH1-VHS57M) scFv: QSALTQPRSVSGSPGQSVTISCAGTSSDVGSENYVSWYQQHPGKAPKLMIYQVNKRASGVPDRFSGSKSGNTASLTISGLQAEDEADYYCASYRSSDHNIVFGGGTKLTVLGGGGSGGGGSGGGGSEVQLVESGGGLVQPGGSLRLSCAASGFTFSSYAMSWVRQAPGKGLEWVSTINSGTGMPYYADSVKGRFTISRDNSKNTLYLQMNSLRAEDTAVYYCAKNFFDGSWFLGPPAMDYWGQGTLVTVSSHHHHHH | 2.7 fold | 90 nM
HS57N (scFv, AS170036 VL1VH1 scFv mutein) scFv: QSALTQPRSVSGSPGQSVTISCAGTSSDVGSENYVSWYQQHPGKAPKLMIYQVNKRASGVPDRFSGSKSGNTASLTISGLQAEDEADYYCASYRSSDHNIVFGGGTKLTVLGGGGSGGGGSGGGGSEVQLVESGGGLVQPGGSLRLSCAASGFTFSSYAMSWVRQAPGKGLEWVSTINSGTGNPYYADSVKGRFTISRDNSKNTLYLQMNSLRAEDTAVYYCAKNFFDGSWFLGPPAMDYWGQGTLVTVSSHHHHHH | 1.5 fold | 170 nM
HS57Q (scFv, AS170036 VL1VH1 scFv mutein; also called AS170036 VL1VH1-VHS57Q) scFv: QSALTQPRSVSGSPGQSVTISCAGTSSDVGSENYVSWYQQHPGKAPKLMIYQVNKRASGVPDRFSGSKSGNTASLTISGLQAEDEADYYCASYRSSDHNIVFGGGTKLTVLGGGGSGGGGSGGGGSEVQLVESGGGLVQPGGSLRLSCAASGFTFSSYAMSWVRQAPGKGLEWVSTINSGTGQPYYADSVKGRFTISRDNSKNTLYLQMNSLRAEDTAVYYCAKNFFDGSWFLGPPAMDYWGQGTLVTVSSHHHHHH | 2.4 fold | 100 nM
HS57R (scFv, AS170036 VL1VH1 scFv mutein; also called AS170036 VL1VH1-VHS57R) scFv: QSALTQPRSVSGSPGQSVTISCAGTSSDVGSENYVSWYQQHPGKAPKLMIYQVNKRASGVPDRFSGSKSGNTASLTISGLQAEDEADYYCASYRSSDHNIVFGGGTKLTVLGGGGSGGGGSGGGGSEVQLVESGGGLVQPGGSLRLSCAASGFTFSSYAMSWVRQAPGKGLEWVSTINSGTGRPYYADSVKGRFTISRDNSKNTLYLQMNSLRAEDTAVYYCAKNFFDGSWFLGPPAMDYWGQGTLVTVSSHHHHHH | 2.8 fold | 88 nM
HS57T (scFv, AS170036 VL1VH1 scFv mutein) scFv: QSALTQPRSVSGSPGQSVTISCAGTSSDVGSENYVSWYQQHPGKAPKLMIYQVNKRASGVPDRFSGSKSGNTASLTISGLQAEDEADYYCASYRSSDHNIVFGGGTKLTVLGGGGSGGGGSGGGGSEVQLVESGGGLVQPGGSLRLSCAASGFTFSSYAMSWVRQAPGKGLEWVSTINSGTGTPYYADSVKGRFTISRDNSKNTLYLQMNSLRAEDTAVYYCAKNFFDGSWFLGPPAMDYWGQGTLVTVSSHHHHHH | 1.1 fold | 220 nM
HS57W (scFv, AS170036 VL1VH1 scFv mutein) scFv: QSALTQPRSVSGSPGQSVTISCAGTSSDVGSENYVSWYQQHPGKAPKLMIYQVNKRASGVPDRFSGSKSGNTASLTISGLQAEDEADYYCASYRSSDHNIVFGGGTKLTVLGGGGSGGGGSGGGGSEVQLVESGGGLVQPGGSLRLSCAASGFTFSSYAMSWVRQAPGKGLEWVSTINSGTGWPYYADSVKGRFTISRDNSKNTLYLQMNSLRAEDTAVYYCAKNFFDGSWFLGPPAMDYWGQGTLVTVSSHHHHHH | 0.6 fold | 380 nM
HS57Y (scFv, AS170036 VL1VH1 scFv mutein) scFv: QSALTQPRSVSGSPGQSVTISCAGTSSDVGSENYVSWYQQHPGKAPKLMIYQVNKRASGVPDRFSGSKSGNTASLTISGLQAEDEADYYCASYRSSDHNIVFGGGTKLTVLGGGGSGGGGSGGGGSEVQLVESGGGLVQPGGSLRLSCAASGFTFSSYAMSWVRQAPGKGLEWVSTINSGTGYPYYADSVKGRFTISRDNSKNTLYLQMNSLRAEDTAVYYCAKNFFDGSWFLGPPAMDYWGQGTLVTVSSHHHHHH | 1.2 fold | 200 nM
